The values below come from the NTF2 design screens of Basanta et al. (2020).

The data set in a line: protease stability score; higher = more stable; yeast display proteolysis, trypsin and chymotrypsin.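 Note: log10 excess protease needed over predicted unfolded state with 0 meaning unfolded.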
Sequence “DEEDQLKEIVERVHDVYKHGDEDKVRKMVDPNARARIGDKRIHGHDNFAKMIAEWKRKADSVSVHVEEFRVSGNKMTMTIRIKMDHNGRDTTFRYTAVATNTNGRVRVVRIQEK” registered a protease stability score of 0.049.

For “DDDKAKEIARQVWHAIREGDEDEAKRQFDKNARVVYGDKTVHGKEQAARMVHEWRRRIDHLEINDMKVDGNSVHVVFRYVHNGRERTQVVRIELDNGRVKNAEFTDQ”, the protease stability score was 1.46.

On to “DETAVRVFRKIEDAYQKGDPDKITNLLDENVEMHVGDKRVHGRETMAEHLKKQLDEIRQKIKSVTLHDKGDTIRIDVLMVEEHNGQPRESRYHVHAKIHNGKMKEREQTSVQ”, for which the protease stability score was -0.095.

In turn, “DDEEHVEEMMRRQQNNYKHGDFEELARQFDPNATVNVGDKTYHGREQIRDWYRKRKEDVDSMDLQVQHFSVDNGRIRIQATERQHFNGQDDSTHFQAEARKHGDKAKLKHFRQQ” had a protease stability score of -0.052.

In turn, “DRTEILKHMFDDLAQVRRDGDPEKLNELMDEDVKARYGDKEYHGREDVARNIHRLASQADHVHIQLDRMSVDNGKARLEADVRIEHNGKVDEVRVEIRADVDNGRVNLREMIYR” showed a protease stability score of 0.839.

With “DESVKERMKRILETGDWKKLVEMADEDASVKVGEKEFHGREQVSDFFKELQDQADTQEIKHVSVHGEHVVNTMVIRFNGKEVHLVLTVQLTNGKIHSASVKFTSEEHHKIMLRAIS”, the protease stability score was found to be 0.257.

In turn, “DTEKLDRFAHEFVKVLREGDEDRMRKLADEDASMNIGDKEYRGREEVAKALREYRERYDHLQVDSIDVQGEHISVKAQVRIDGRRRRARFEVRMHNGRIKEVNFDPDLLKEQHT” had a protease stability score of 0.206.

As for “DEEKMLRIAKKMVDALKNGDKDKVKKLGAEGVKVHAMDEEVEGPDQLAKYAKKFKDIGVHVEYKETEYKGDTVTFHTEAEKGDAKVRFEVHYVVKGDKVQKVEVRVDKDQLTEFRKS”, the protease stability score came out at 0.524.

Sequence “EEDKLEHMTKLMTQNDEDRWEELADKNVRIEVGDYRVNGREQASSYLKLLKDQVDDYTVNHIHYQGDKIVANVQASVNGRRFRFQIRITVHNGRLKSMMVKVTDEHFKHVLKNIVG” showed a protease stability score of 0.698.

In the case of “DEDLNDMAVRMAEILNEGNEDEYNKQIDPHARFVIGDKEYSGHEHFKKEIQRQNKEMRVTVNLHRWDATNGEMHLVIHYSWNVNGRPTTIHVHFRITARGDKFKQIDVHMDPDELRRVDS”, the protease stability score was determined as 0.765.

“DEEDLSDVLDKMDKAIVRGDEQKLQDLADPNVRAEIGDQKYHGRDAITMFFKVLTEQVDHMRIKTVELQGNKLYIVVSAHFNGQTYDVRFVADAHNGRITRIYVDPQAQKRMEE”: the protease stability score turned out to be 1.29.

In the case of “DQKKLKEQIKELWDALRTGDPQRAADLADPNARIQVGDKEITGREKFREHVKENKERIDRFTINDFKVQGDKARVDFHYEVNGQHRRVDATIVMRNGHIVSAQFDSQ”, the protease stability score came out at 0.717.

For “DDDQLRKFLEILRSGNEDDMERQADKDARARVGDDHYHGREEVAHMIRNFLHRADHIEVKSVRFTGEKAKVDMHAVVNGQELRLIIEAEVHNGTLKHIVMKVTDEEHKRTLERAMS”, the protease stability score amounted to 0.29.

As to “DEHKLQQVFEKFLKAFNTGDRDLARKLMDPNVKLDVGDKTYHGREQAMRWMHQVRQKADHIQVQSMESSGNKATVDIVIEHNGKSTSEVIRLEVENGHFRHVRKDSP”, the protease stability score amounted to 0.091.

In turn, “DEEDEARKMMEELDKAWKTGDSERYAQLLDPNARMVIGDKEYHGRDDVRKWFHEMLRRVDHVQLHLTSIDIRNGKVDARAEVRLNHNGKDTSDTVIFRLQHDNGHIKIRSVKNK” gave a protease stability score of 0.251.

Turning to “DEHRLATEAIDQFERALQSGNPDEITKMADPDARVHVGDTQLRGREELQRYMHEVRQRHDQVEVHVHRISIDGNKINIHFVLNLNHNGQTDSQSYEMTARVQNGSAVVKEIIQQ”, the protease stability score is -0.296.

On to “DEELKKTATEFNKALNQNDEKRLKTLADPNATFVVGDEVIHGMDHVNKHQHDLKRNLRISIDVRDMKNSGPQAHVNAQVVFEIDGRPRQVEINYIITYHNGKVKKVRVDMDPEQLKEIKK”, for which the protease stability score was found to be 1.08.

On to “DEEDIAHQWQDKMRTAFKDNDPEQFTQLADEDAKMHVGDTEYHGRDTIMKTLVDEAKRADRITFNVQDFRVNGNNVVVRLEIRMQHNGKEDSKVVRLVFNQSGDDMRLRYAHDG”, for which the protease stability score is 0.338.

“DEENVEAAHRFFEALNTNNPDELVKQFDPNARFRYGDTDIHGREHFRKWVKDQLDQIRFTLTSMTANVHNGKVRIELRFIKHHNGRPRDVNQEVRADVHNGKIKNLSVSDRG” returned a protease stability score of 0.563.

Turning to “DHTELETLARRMVDAMRTGDPDKLAELADPNVKVTYGDKSVHGHEQFTKQMKEFVDQYDHVRVERLKIEGDKVHADLNAEHNGRSSRFIMLITVKNGRVKHLKFKNR”, the protease stability score was found to be 0.472.

Take “DEERNELAEHVVKAWHHNDPDRVQKLVDPNVRFEIGDKEVHGREEYARIQRTEKDQWDLQIEVKHITVHNGRVDVDFDWRIERDGRPRTNQQVVIFEVDNGKVKRVSFQERK”: the protease stability score was -0.279.

In turn, “DEHKVKEIEDIVRNNDFLKLANMADENARVRYGDKDFHGRERIKTQAQRFETKFDHAEIKSLDVRGNEISVDMVAVFNGRSVRFRMILVVKNGQIKMMEFRATSEKEETKLKEALS” gave a protease stability score of 1.25.

“DEEAVKRVEHFMKNIREGNEQKAREYADKNATIHVGDKTVHGREDLERWVRQVKEEQRMDVRSFHATADNGNVDVKVTAEIEHNGQPRHHHYTAQFNISNGKIQSVTVDDHP” displayed a protease stability score of -0.099.

Sequence “DEDAKKQVETMIRLIERGNEKEIKKQMDPNATYQVGDNRLHGMDQVNKHLKDLKEQMRFVFDVKSITVRGDKVDIDLQLDKNENGRPDKEDARMIVHVHNGSVKSVIVTTRG” yielded a protease stability score of 0.143.

As for “DEHDLDKWRQVMEHNDFDKLVRLADPNVKIVVGDQEYHGREQYKELMDKLEHHVDHMELHSVSITNGEVHARLTVIINGKSIEYVFKFVVDNGKLKKLRIQFTDPEDEKIWKRAMS”, the protease stability score stood at 1.7.

“EEKNQHVAQQWLEMVQNGDPRKAKQQFDKDARVKIGDKELNGREEIVRQFEREQREMRVDIKDYKIDVNGDKVTVRLHVEVQSNGTPTTRDYVVHMQVHNGRVQMVIFRSDG”: the protease stability score was 0.747.

In turn, “DERDVKSVIDLVKTGDFDQMVRNADKDVKIRIGDKHVHGREQASEAMKKFTDQIDHYEVKSVNVNNGRVIVEAVFVVNGEKITVTVIVEAQNGRITHVEWRYRDEHDKKLLRKILG” returned a protease stability score of 1.47.

“DEDLIELAKELMHALQEGDEKRLQDLIDPNASAQIGDHRVHGMDEVLSTLVEHQHNQRVRIDRMEADVHNGTARVRIDQQFEHNGNPDKKVLVYEMTANNGKLKHYKLDEDK” returned a protease stability score of 0.268.

“DEHSDERRLQTAMHALEQNDPDEIKRQMDKDASARYGEKDVTGRDNAKKAASDFKKKVDHVEIKHYDIQGDKLHAKAKVNINGQHIEIIMVLVAHNGHVQRLQVDHG” showed a protease stability score of 0.227.

Take “DEEEQHKVAKKLNEAFQQGDPDRLKQLVDKDARAEVGDTTYHGSQDIREAMQHIKDRVDKIEVKSFSVRNGKVTLSINMEVNGRKVILTVEARVDNGHVEYMRIKYTNEEDREVMDQ”: the protease stability score amounted to 0.95.

For the sequence “DDENNKILEEYLKAEQTNDPDRAVELMRDDVRMQVGDHRVHGREEVRKRIHQIKDTMRVQIDDLRVTVKGESVVANLDAQVRINGQPVRFRASVRADFHNGKIVHHRVHISEEQQERLKK”, the protease stability score came to 0.272.

The sequence “DSERRQREAENFFKNLQTGNKHEFEKLFPPDVRAQVGEKEIHGREEAQKWWKNIHDRADHMQIDHFDVDGNKITFDMRMNVDGHEIRMRLTIRLENGQYRSLTAEVRDEDAERRLKS” had a protease stability score of 0.672.

“DESVRRNFEDLLRAEETGDPDRVMDLVDPNARIQVGDKYLQGREQIDETMERHKSEIRFSIDRLSATDHNGVVDVTMSMKKNVNGKPKKFRAEVNVKAHNGKLKLLDMKIDG” registered a protease stability score of -0.284.

Take “DEENVRLARHYADAEARGDHDTIVELLDPNAKVDVGDHEVTGDEHVREELKKKHNQWRAELKDVKASVRGDKLRLKITFVVHINGRPSEQTIDARADIKDGRFKSFSVTIDPQEERHNES”: the protease stability score turned out to be 0.395.

For the sequence “DEEKHKQKLRKFAKDFVEGDPEEISKNVDEDVKVHIGDQDVSGREEAMKVIEEIKKRADHIQITSVEASNGRLRINVVIQVNGRNVTAHVTVDADNGRVKKVTMDPDQVRKLKS”, the protease stability score stood at 0.827.

Sequence “DEEVERLFKRFMSAVDEGNPDELKKQIDPNAKQHIGDKTYHGRETIASRIVKRRQKMRVTWKSISITDHNGTIKVTAHAVFNHNGRPKEVQLDIEVRAHGDQMKNFRVQVRG” displayed a protease stability score of 0.328.

For the sequence “DRRDLQLVERVLRALQTGDEDKVMENLDPNARVEYGDKEYHGREQLHEQIERDHRNMRFSIDVKRVDLHGDRAHFDATVTMNINGKPFEDRFHIDVVARNGRIKHLSMKMDPDRVKEVES”, the protease stability score was -0.157.

Sequence “DEEQAKTIMEKWQKAVQTNNDELADKLYKPNVEWENGDEQRQGKEVVVKMLQKAQKKGVEFQVRKAKVEGDRVEMVYDVRIGDQTVTFTVRMDVHGGRVERVKAEASDEVKKALKKG” registered a protease stability score of 0.444.

In turn, “DEEQTLRERFNTLKRAQDHNDEEDLRRMMDENVKVRIGDEDVHGRETANEQFARMLRRVDHVRLRLKTMHVHGEKYQFRFELQLTVNGRHEHRDVRIRFDNVNGRTNIVEMEVG” gave a protease stability score of 0.35.

The sequence “DHEEVKEFNKTLIKILETNDSKKLHELMDPNARIQIGDKDVSGRHNIHKLAEENKRRVDHFRVSRIDYHNGKVRADFTYVVNGQKHRVDMDIDITNGKIKRIIYHQR” showed a protease stability score of 0.011.

“DEQEDRDRLEEALHAVMTGDEDRLMELADPNVEIQIGDKTFHGNTEARKVVETLKRKVDHLRVEEITKRPGSAFVIAVMEVNGKQVTVTVRIQAENGRIVHVSMNPKQLQDLKS” returned a protease stability score of 0.776.

As for “DDDAQRIAEDIQNALRKGDPERLNHLVDKNVKFVIGDKTIHGREDAAKQWHTMNRQMRIEVEMKHWDQQGNEVTIVARFVYEHNGRPETKRITRTITFHNGRAKEVVQKDDS”, the protease stability score amounted to 0.09.

“EEDAVDRARKMFENLKTGNEDHFKEQFDPNATIRIGDQKVHGMENLKDHMRKVRKHMRVDFRRVDIKAENGRIDIKARADFSVNGRPVSQHFTARAVVSNGRFKSFELQVSEEDEKKVKS”: the protease stability score was found to be 0.606.

With “EEEHAKHLNEVMERGDWERLAELADKDVKIRVGDKEYRGRELLERWNRKLYKKVDEVHIDSVHVRNGRITVNMEVNVNGDKVRAQFRIRIHNGKIKHINIQATSEENEERWQEMLD”, the protease stability score was 1.5.

Sequence “DKSMQEEMERVARENDFHRLAELADPNVKWQYGDKHLHGRTAQREFVRLNHEAVDHLEVQDVKFHGENVEIDLVMTVNGKEIKVVLQAHVHNGRIKEMRWQVTNEDEKRKLEEAVS” gave a protease stability score of -0.183.

Take “DEENRKDAEKYMKVTENNNPDEVSKLVDPNAKLEIGDKTYHGDEWMMDQQQQDRDQARIEVKRVDIKVHNGQINARVRFVKEENGKPDRRDVDIKMNIHNGRLKRAQFKHTE”: the protease stability score was 0.064.

The sequence “DEEKNEEWAEQAQHLLETGDPDKFRTMIDENAKADVGDKRLHGRETIVEEIDRMTERVDHIQITRVSAKGNRVRVKMVLRVNGVNLDVVMVFNYHNGRIKSVQVEYRNREQQKRFES” yielded a protease stability score of 0.388.
